According to patent publication US20130116182A1, “Factor VIII B Cell Epitope Variants Having Reduced Immunogenicity” (priority 2009, published 2013):

How the values were obtained:
[1] = system: CD4+ T cells; assay: Staining with peptide-loaded DR1001 tetramers (tetramer guided epitope mapping); type: cell-based, human; settings: for Positive (individual peptide loaded tetramer staining): DR1001 tetramers, severe HA inhibitor subject 56A, day 18
Experimental: (§1) a. Added 1.5 μl PE-labeled tetramers (final concentration 10 μg/ml. b. Mixed by shaking the rack containing the FACS tubes. c. Incubated the cells with tetramer for 1 hr in the 37 C 5% CO2 incubator.
(§2) a. Incubated tubes in the refrigerator for >5 min. b. Made an antibody cocktail consisting of 3.75 μl anti-CD4-APC, 3.75 μl anti-CD3-PerCP, 3.75 μl anti-CD25-FITC per sample. 3.75 ul×50=187.5 ul. c. Added 3.75 μl control antibodies to 75 μl control cells (1 —unstained; 2—anti-CD4-FITC; 3—anti-CD4-PE; 4—anti-CD3-PerCP; 5—anti-CD4-APC). d. Added 11.25 μl antibody cocktail to each sample. e. Incubated all samples at 4 C (put in the refrigerator) for 20 min in the dark.
(§3) a. Added 2 ml cold FACS wash buffer to each tube. b. Centrifuged at 1200 rpm, 10 min, 4 C, low brake in the Beckman Coulter Allegra 6KR centrifuge. c. Decanted the supernatant. d. Resuspended in 200 μl FACS wash buffer. e. Stored tubes in a covered ice container for FACS analysis.
(§4) a. Added 1.5 μl PE-labeled tetramers (final concentration 10 μg/ml). b. Mixed by shaking the rack containing the FACS tubes. c. Incubated the cells with tetramer for 1 hr in the 37 C 5% CO2 incubator.
as §2, with “ul×55=206.25 ul (For the CD25-FITC Ab, I opened a new vial (Lot #E016414)—taking 100 ul from this lot.)” for “ul×50=187.5 ul.”
(§5) a. Added 2 ml cold FACS wash buffer to each tube. b. Centrifuged at 1200 rpm, 10 min, 4 C, low brake in the Beckman Coulter Allegra 6KR centrifuge. c. Decanted the supernatant. d. Resuspended in 250 μl FACS wash buffer. e. Stored tubes in a covered ice container for FACS analysis.

[2] = system: CD4+ T cells; assay: Staining with peptide-loaded DR0101 tetramers (tetramer guided epitope mapping); type: cell-based, human; settings: for Positive (individual peptide loaded tetramer staining): DR0101 tetramers, severe HA inhibitor subject 56A, day 18
Description: T-cell clones were obtained from blood samples from both brothers by staining CD4+ cells with fluorescent DR0101 tetramers that were loaded with peptide FVIII2194-2213, followed by single-cell sorting and expansion. Clones were expanded by stimulation with irradiated peripheral blood mononuclear cells (PBMCs) from an HLA-mismatched individual plus phytohemagglutinin (Remel, Lenexa, Kans.) in the presence of human IL-2 (Hemagen Diagnostics, Inc., Columbia, Md.). Clonality was confirmed by tetramer staining, multiplex PCR and sequencing of the VDJ region in the PCR products.
as §1, §2, §3, §4
as §2, with “ul×55=206.25 ul (For the CD25-FITC Ab, I opened a new vial (Lot #E016414)—taking 100 ul from this lot.)” for “ul×50=187.5 ul.”
as §5

[3] = target: BO2C11 Fab fragment; assay: SPR, BO2C11 Fab on chip, 25 C, 1:1 model

Substance	Positive (individual peptide loaded tetramer staining) [1]	Positive (individual peptide loaded tetramer staining) [2]	Kd [3] [pM]	koff [3] [s⁻¹]	kon [3] [M⁻¹ s⁻¹]	tetramer staining ([1]; loaded on DR1001, subject 56A)	tetramer staining ([2]; loaded on DR0101, subject 56A)
IKTQGARQKFSSLYISQFII [Mutant C1-13]	no	no					
FVIII C2 domain protein T2272A (from UniProt P00451 2189-2351)			4.2	5.4e-05	1.3e+07		
FVIII C2 domain protein N2224A (from UniProt P00451 2189-2351)			2.7	8.6e-05	3.2e+07		
FVIII C2 domain protein K2249A (from UniProt P00451 2189-2351)			6.1	3.7e-05	6.1e+06		
FVIII C2 domain protein R2307Q (from UniProt P00451 2189-2351)			4.7	9e-05	1.9e+07		
DPRCLTRYYSSFVNMERDLA [Mutant A2-20]	no	no					
FVIII C2 domain protein K2207A (from UniProt P00451 2189-2351)			13	5.9e-05	4.6e+06		
LAPMIIHGIKTQGARQKFSS [Mutant C1-12]	no	no					
FVIII C2 domain protein K2279A (from UniProt P00451 2189-2351)			26	0.00019	7.2e+06		
FVIII C2 domain protein R2304H (from UniProt P00451 2189-2351)			9.2	9.2e-05	1e+07		
DLNSCSMPLGMESKAISDAQ [Mutant C2-1]		no					
LFFQNGKVKVFQGNQDSFTP [Mutant C2-14]	no						
FVIII C2 domain protein V2223M (from UniProt P00451 2189-2351)			6.3	3.6e-05	5.7e+06		
FVIII C2 domain protein P2300L (from UniProt P00451 2189-2351)			5.3	9.5e-05	1.8e+07		
IFKYKWTVTVEDGPTKSDPR [Mutant A2-18]	yes	yes				Very strong staining	Very strong staining
FVIII C2 domain protein L2302A (from UniProt P00451 2189-2351)			2.4	5.7e-05	2.4e+07		
FVIII C2 domain protein Q2311A (from UniProt P00451 2189-2351)			3	6.8e-05	2.3e+07		
FVIII C2 domain protein H2269A (from UniProt P00451 2189-2351)			7.7	0.00017	2.2e+07		
FSWIKVDLLAPMIIHGIKTQ [Mutant C1-11]	no	no					
SLLTSMYVKEFLISSSQDGH [Mutant C2-11]	no						
FVIII C2 domain protein Q2270A (from UniProt P00451 2189-2351)			1.5	0.00018	1.2e+08		
LGMESKAISDAQITASSYFT [Mutant C2-2]		no					
FVIII C2 domain protein N2225A (from UniProt P00451 2189-2351)			2.4	3.9e-05	1.6e+07		
FVIII C2 domain protein H2211A (from UniProt P00451 2189-2351)			5.4	3.8e-05	7.1e+06		
VEDGPTKSDPRCLTRYYSSF [Mutant A2-19]	no	no					

Substance	Positive (individual peptide loaded tetramer staining) [1]	Positive (individual peptide loaded tetramer staining) [2]	Kd [3] [pM]	koff [3] [s⁻¹]	kon [3] [M⁻¹ s⁻¹]	tetramer staining ([1]; loaded on DR1001, subject 56A)	tetramer staining ([2]; loaded on DR0101, subject 56A)
FVIII C2 domain protein T2202A (from UniProt P00451 2189-2351)			5.8	3.5e-05	6e+06		
FVIII C2 domain protein K2227Q (from UniProt P00451 2189-2351)			2.9	2e-05	6.8e+06		
SQDGHQWTLFFQNGKVKVFQ [Mutant C2-13]	no						
FVIII C2 domain protein S2173I (from UniProt P00451 2189-2351)			7.3	0.00011	1.5e+07		
KGVKHLKDFPILPGEIFKYK [Mutant A2-16]	no	no					
FVIII C2 domain protein L2273A (from UniProt P00451 2189-2351)			15	0.00017	1.1e+07		
FVIII C2 domain protein N2277A (from UniProt P00451 2189-2351)			5	6e-05	1.2e+07		
FVIII C2 domain protein Q2316A (from UniProt P00451 2189-2351)			25	0.00032	1.3e+07		
SDAQITASSYFTNMFATWSP [Mutant C2-3B]		weak					
FVIII C2 domain protein Q2213A (from UniProt P00451 2189-2351)			4.4	6.1e-05	1.4e+07		
KVFQGNQDSFTPVVNSLDPP [Mutant C2-15]	no						
FVIII C2 domain protein Q2222A (from UniProt P00451 2189-2351)			5.3	3.9e-05	7.4e+06		
FVIII C2 domain protein K2227A (from UniProt P00451 2189-2351)			3.4	6.4e-05	1.9e+07		
KFSSLYISQFIIMYSLDGKK [Mutant C1-14]	no	no					
FVIII C2 domain protein A2201P (from UniProt P00451 2189-2351)			19	0.00016	8.4e+06		
FVIII C2 domain protein W2313Y (from UniProt P00451 2189-2351)			11	8.7e-05	8.2e+06		
FPILPGEIFKYKWTVTVEDG [Mutant A2-17]	no	no					
KEFLISSSQDGHQWTLFFQN [Mutant C2-12]	no						
FVIII C2 domain protein L2212A (from UniProt P00451 2189-2351)			1.9	4.4e-05	2.3e+07		
FVIII C2 domain protein T2253A (from UniProt P00451 2189-2351)			9.8	5.2e-05	5.3e+06		
FVIII C2 domain protein E2181A (from UniProt P00451 2189-2351)			8.6	0.00019	2.2e+07		
FVIII C2 domain protein H2309A (from UniProt P00451 2189-2351)			1.9	2.9e-05	1.5e+07		
FVIII C2 domain protein H2315A (from UniProt P00451 2189-2351)			4.9	7.3e-05	1.5e+07		
FVIII C2 domain protein E2327A (from UniProt P00451 2189-2351)			2.6	5.4e-05	2.1e+07		
QFIIMYSLDGKKWQTYRGNS [Mutant C1-15]	no	no					
